Substrate: Nc1nc2nc[nH]c2c(=O)[nH]1
Assay: purified protein
Conditions: zinc active site

B1: Guanine deaminase (GDA) (Homo sapiens) (protein)
chain: MCAAQMPPLAHIFRGTFVHSTWTCPMEVLRDHLLGVSDSGKIVFLEEASQQEKLAKEWCFKPCEIRELSHHEFFMPGLVDTHIHASQYSFAGSSIDLPLLEWLTKYTFPAEHRFQNIDFAEEVYTRVVRRTLKNGTTTACYFATIHTDSSLLLADITDKFGQRAFVGKVCMDLNDTFPEYKETTEESIKETERFVSEMLQKNYSRVKPIVTPRFSLSCSETLMGELGNIAKTRDLHIQSHISENRDEVEAVKNLYPSYKNYTSVYDKNNLLTNKTVMAHGCYLSAEELNVFHERGASIAHCPNSNLSLSSGFLNVLEVLKHEVKIGLGTDVAGGYSYSMLDAIRRAVMVSNILLINKVNEKSLTLKEVFRLATLGGSQALGLDGEIGNFEVGKEFDAILINPKASDSPIDLFYGDFFGDISEAVIQKFLYLGDDRNIEEVYVGGKQVVPFSSSV
B1 gave a Km of 12 ± 9 µM.

Reference: PMC9109600
